This is an account of results in patent publication US20240026019A1 (Innovent, published 2024).

Assay [1] deals with T1, human TNFR2 overexpressed on CHO-S cells (CHOS-hTNFR2) (human, UniProt P20333 23-461).
T1 construct: also called hTNFR2 CHO-S; human TNFR2 molecule overexpressed on CHO-S cells
T1 sequence: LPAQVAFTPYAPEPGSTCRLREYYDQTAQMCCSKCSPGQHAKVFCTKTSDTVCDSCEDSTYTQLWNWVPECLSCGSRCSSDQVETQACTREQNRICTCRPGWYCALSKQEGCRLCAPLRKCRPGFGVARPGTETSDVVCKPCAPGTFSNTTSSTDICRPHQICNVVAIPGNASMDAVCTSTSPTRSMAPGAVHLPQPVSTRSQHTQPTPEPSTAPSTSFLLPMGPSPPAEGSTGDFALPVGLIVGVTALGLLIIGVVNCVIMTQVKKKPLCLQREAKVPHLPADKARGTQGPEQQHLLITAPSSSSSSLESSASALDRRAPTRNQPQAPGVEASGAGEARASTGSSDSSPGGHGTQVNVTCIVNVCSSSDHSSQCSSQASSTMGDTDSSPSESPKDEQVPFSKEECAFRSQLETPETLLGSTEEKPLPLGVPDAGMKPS
Put plainly: flow cytometry on CHO-S cells overexpressing human TNFR2 (chimeric antibodies), MFI-FL2-A; unit taken from the axis Conc log(nM). The method, then: (§1) In the study, the binding of the chimeric antibodies of the present invention, after being diluted in a gradient, to a stable CHO-S cell strain overexpressing human TNFR2 on the surface was assayed by using a flow cytometer. cDNAs encoding human TNFR2 (SEQ ID NO: 60) and cynomolgus monkey TNFR2 (SEQ ID NO: 61) were cloned into pCH01.0 vectors (Invitrogen), which were transfected into CHO-S cells (Invitrogen) to produce CHO-S cells overexpressing human TNFR2 (CHOS-hTNFR2) and CHO-S cells overexpressing cynomolgus monkey TNFR2 (CHOS-cTNFR2).
(§2) CHOS-hTNFR2 cells or CHOS-cTNFR2 cells were counted and diluted to 2×10⁶ cells/mL, and added to a U-bottom 96-well plate at 100 μL/well. The mixture was centrifuged at 300 g for 5 min, and the cell medium was removed. The dilutions of the samples (the chimeric antibodies 3C4, 69B1, and 72G8 and the positive control antibody OPI) (the antibodies were subjected to a three-fold serial dilution in PBS from the maximum antibody concentration of 300 nM) were added to the U-plate, and the cells were resuspended at 100 μL/well and left to stand on ice for 30 min. The suspension was centrifuged at 400 g for 5 min, and the supernatant was removed. The cells were washed twice with PBS. The mixture was centrifuged at 300 g for 5 min, and PBS was removed. […]
(In flow cytometry, cells or beads pass a laser one at a time.)

Assay [2] concerns the target T2, cynomolgus monkey TNFR2 overexpressed on CHO-S cells (CHOS-cTNFR2) (cynomolgus monkey, UniProt P20333 23-461 (human entry)).
T2 construct: also called cTNFR2 CHO-S
T2 chain: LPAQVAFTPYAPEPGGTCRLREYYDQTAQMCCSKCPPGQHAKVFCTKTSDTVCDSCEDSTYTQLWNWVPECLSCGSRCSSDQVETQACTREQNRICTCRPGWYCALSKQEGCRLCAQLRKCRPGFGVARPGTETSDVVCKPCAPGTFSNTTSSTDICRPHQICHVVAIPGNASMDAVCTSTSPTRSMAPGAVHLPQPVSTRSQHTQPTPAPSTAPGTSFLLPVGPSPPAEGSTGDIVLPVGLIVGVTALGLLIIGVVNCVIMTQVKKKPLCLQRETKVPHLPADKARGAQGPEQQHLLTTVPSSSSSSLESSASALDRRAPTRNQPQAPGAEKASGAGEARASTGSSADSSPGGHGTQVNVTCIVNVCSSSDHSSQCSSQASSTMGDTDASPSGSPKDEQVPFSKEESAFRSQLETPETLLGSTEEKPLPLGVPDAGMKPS
Put plainly: flow cytometry on CHO-S cells overexpressing cynomolgus monkey TNFR2 (chimeric antibodies), MFI-FL2-A; unit taken from the axis Conc log(nM). The method, then: as §1, §2

For assay [3], the target named is T3, hTNFR2 protein (coated on the microplate in the blocking ELISA) (human, UniProt P20333 23-257).
T3 construct: The construct coated in the ELISA is not described (it may or may not be the immunogen, Sino biological 10417-H03H)
T3 sequence (looked up): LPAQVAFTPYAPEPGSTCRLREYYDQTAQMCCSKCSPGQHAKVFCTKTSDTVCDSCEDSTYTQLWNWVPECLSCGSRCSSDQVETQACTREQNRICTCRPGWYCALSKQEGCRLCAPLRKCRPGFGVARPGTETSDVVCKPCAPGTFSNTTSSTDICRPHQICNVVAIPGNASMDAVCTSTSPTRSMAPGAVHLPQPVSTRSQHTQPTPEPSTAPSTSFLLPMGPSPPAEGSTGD
Put plainly: blocking ELISA: hTNFR2 coated on the plate, binding of biotinylated TNFα blocked by the antibody; unit taken from the axis Conc log(nM) [A]. As to the method: The hTNFR2 protein was resuspended and dissolved to a concentration of 2 μg/mL with PBS, and a microplate was coated with the protein and incubated overnight. The plate was blocked with 5% BSA for 1 h, and a biotinylated antigen (Recombinant Biotinylated TNFα protein (ACRO)) was diluted to 2 μg/mL and added to the plate at 10 μL/well. The antibodies prepared as described above (3C4, 69B1, and 72G8) were each diluted in a gradient starting from the maximum concentration of 300 nM for a total of 8 or 12 dilution gradients. The diluted antibodies were added at 100 μL/well and incubated in PBS on ice for 30 min. The antigen-antibody mixture was incubated in a microplate for 90 min and washed three times with PBS, and the supernatant was discarded. 100 μL of Avidin-HRP (Invitrogen) diluted at a 1:5000 ratio was added to each well, incubated at room temperature for 30 min, and washed six times with PBS. A TMB chromogenic solution (solarbio) was added to the plate at 100 μL/well for color development for 1 min, and the reaction was stopped by adding a stop buffer (solarbio) at 100 μL/well. The plate was read on a microplate reader at OD₄₅₀ and OD₆₂₀.
In a similar manner to that in Example 7, the ability of the humanized antibodies hz3C4.7, hz69b1.5, hz69b1.6, hz69b1.11, and hz69b1.20, and the control antibody OPI to block the binding of human TNFα to hTNFR2 was assayed by ELISA.
Background: In an ELISA, binding on a coated surface is turned into a signal by an enzyme label.

B1: chimeric antibody 3C4 (antibody, human IgG1, kappa, V domains shown)
VH: QVQLQQSGPELVKPGASVTISCKASDYSFTNYYIHWVKQRPGQGLEWIGWIYPGNVITKYHEKFKGKAILTADTSSTTAYMQLNSLTSEDSAVYFCARSRATGYFDYWGQGTTLTVSS
VL: DIQMTQTTSSLSASLGDRVTISCRASQDIRNYLNWFQQKPDGTIKLLIYYTSRLHSGVPSRFSGSGSGTDYSLTISNLEQEDMATYFCQQFNTLPWTFGGGTKLEIKR
In general, EC50 refers to the concentration giving half of the maximal effect. One may read the IC50 as the concentration at which inhibition is half-maximal. On to B1, for which the EC50 came to 2 nM in assay [1] and 0.355 nM in assay [2]. The same molecule displayed an IC50 in assay [3] of 24.2 nM.

B2: chimeric antibody 69B1 (antibody, human IgG1, kappa, V domains shown)
VH: QIQLVQSGPELKKPGETVKISCKASGYTFTDYSMNWVKQAPGKGLKWMGWLNTETGEPIYADDFKGRFVFSLETSASTAYLEINNLNDEDTATYFCAREAIYYGTSYVLDYWGQGTSVTVSS
VL: DIVLTQSPASLAVSLGQRATISCRASESVEYYGTNFMQWYQQKPGQPPKLLIYSASNVESGVPARFSGSGSGTDFSLNIHPVEEDDIAVYFCQQSRKDPSTFGEGTNLEIKR
Regarding B2, the EC50 in assay [1] was 3.14 nM; in assay [2], 0.324 nM.

B3: positive control antibody OPI (humanized antibody SBT-002e in WO 2017083525) (antibody, V domains shown)
VH: QVTLKESGPALVKPTQTLTLTCTFSGFSLSTSGMGVGWIRQPPGKALEWLAHIWWDDDKFYNPSLKSRLTISKDTSKNQVVLTMTNMDPVDTATYYCARLTGTRYFDYWGQGTTVTVSS
VL: DVQMTQSPSSLSASVGDRVTITCKASQDINKFIAWYQQKPGKAPKLLIHYTSTLQPGIPSRFSGSGSGRDYTFTISSLQPEDIATYYCLQYGNLWTFGGGTKVEIK
notes: also called Benchmark OPI
B3 had an IC50 in assay [3] of 38.2 nM.
